We go through three molecules from patent publication US20240301385, “DNA MODIFYING ENZYMES AND ACTIVE FRAGMENTS AND VARIANTS THEREOF AND METHODS OF USE” (LIFEEDIT THERAPEUTICS, INC., published 2024).

Data set [1] addresses APG05840.1-L16-nAPG07433.1 (truncated deaminase) (synthetic). Kind of data set: cell_activity; HEK293FT; PAM SEQ 152. The conditions noted are these: tags: SV40 NLS, 3xFLAG N-term; nucleoplasmin NLS C-term. As for the experimental part: (§1) 500 ng of plasmid comprising an expression cassette comprising a coding sequence for each fusion protein shown in Table 3 and 500 ng of plasmid comprising an expression cassette encoding an sgRNA shown in Table 4 were co-transfected into HEK293FT cells at 75-90% confluency in 24-well plates using Lipofectamine 2000 reagent (Life Technologies). Cells were then incubated at […] for 72 h. Following incubation, genomic DNA was then extracted using NucleoSpin 96 Tissue (Macherey-Nagel) following the manufacturer's protocol. The genomic region flanking the targeted genomic site was PCR amplified using the primers in Table 4 and products were purified using ZR-96 DNA Clean and Concentrator (Zymo Research) following the manufacturer's protocol. The purified PCR products were then sent for Next Generation Sequencing on Illumina MiSeq (2×250). Results were analyzed for INDEL formation or introduction of % specific cytosine mutations.
(§2) The position of each nucleotide in the target sequence was determined. “C17” indicates, for example, a cytosine at position 17 of the target sequence. The position of each nucleotide in the target sequence was determined by numbering the first nucleotide in the target sequence closest to the PAM as position 1, and the position number increases in the 3′ direction away from the PAM sequence.

The target of data set [2] is T1, APG00868-L16-nAPG07433.1 (synthetic).
T1 chain: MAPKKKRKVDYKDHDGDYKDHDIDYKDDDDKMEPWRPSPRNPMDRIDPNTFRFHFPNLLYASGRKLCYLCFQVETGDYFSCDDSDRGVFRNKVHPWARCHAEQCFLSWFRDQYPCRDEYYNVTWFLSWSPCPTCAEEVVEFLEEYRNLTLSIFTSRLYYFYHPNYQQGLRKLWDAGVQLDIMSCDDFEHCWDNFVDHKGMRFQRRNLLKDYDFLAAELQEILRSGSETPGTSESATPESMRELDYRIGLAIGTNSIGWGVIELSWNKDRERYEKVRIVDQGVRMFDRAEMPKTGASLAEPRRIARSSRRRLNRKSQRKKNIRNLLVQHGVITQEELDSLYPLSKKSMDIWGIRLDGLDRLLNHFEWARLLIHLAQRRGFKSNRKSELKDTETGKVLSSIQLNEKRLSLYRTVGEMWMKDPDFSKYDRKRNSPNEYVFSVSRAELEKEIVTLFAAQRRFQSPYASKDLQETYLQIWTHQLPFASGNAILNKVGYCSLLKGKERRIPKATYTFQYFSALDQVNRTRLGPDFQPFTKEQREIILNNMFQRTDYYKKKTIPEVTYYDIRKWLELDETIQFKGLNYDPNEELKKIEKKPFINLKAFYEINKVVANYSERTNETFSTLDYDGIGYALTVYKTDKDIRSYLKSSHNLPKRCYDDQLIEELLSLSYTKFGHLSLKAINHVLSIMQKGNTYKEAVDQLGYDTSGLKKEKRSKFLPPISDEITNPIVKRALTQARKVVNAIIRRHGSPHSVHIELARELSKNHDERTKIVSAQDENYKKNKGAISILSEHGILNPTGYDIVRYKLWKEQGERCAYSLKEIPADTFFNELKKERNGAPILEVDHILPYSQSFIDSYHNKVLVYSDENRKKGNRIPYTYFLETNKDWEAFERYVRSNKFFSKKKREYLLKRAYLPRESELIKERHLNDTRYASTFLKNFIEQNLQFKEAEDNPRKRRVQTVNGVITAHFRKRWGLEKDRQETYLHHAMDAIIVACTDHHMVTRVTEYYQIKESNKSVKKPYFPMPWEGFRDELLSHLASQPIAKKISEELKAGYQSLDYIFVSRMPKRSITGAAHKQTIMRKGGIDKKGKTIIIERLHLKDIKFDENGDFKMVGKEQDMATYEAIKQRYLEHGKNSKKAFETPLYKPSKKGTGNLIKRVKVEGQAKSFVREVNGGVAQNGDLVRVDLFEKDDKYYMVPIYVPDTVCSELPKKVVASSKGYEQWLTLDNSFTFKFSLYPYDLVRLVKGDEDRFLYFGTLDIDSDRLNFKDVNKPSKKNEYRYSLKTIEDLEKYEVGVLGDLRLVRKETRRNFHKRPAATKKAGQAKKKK
Kind of data set: cell_activity; HEK293FT; PAM SEQ 152. As to conditions: tags: SV40 NLS, 3xFLAG N-term; nucleoplasmin NLS C-term. How it is done:
as §1, §2

B1: SGN000169 sgRNA ; SGN000169 target (ssRNA ; dsDNA)
RNA: CACAUCUCGAGCAAGACGUUGUCAUAGUUCCAUUAAAGCCAAAAGUGGCUUUGAUGUUUCUAUGAUAAGGGUUUCGACCCGUGGCGUCGGGGAUCGCCUGCCCAUUGAAAUGGGCUUCUCCCCAUUUAUU
DNA 1: CACATCTCGAGCAAGACGTT
DNA 2: AACGTCTTGCTCGAGATGTG
Regarding B1, the activity is 30.2 % mutated reads in data set [1] and 16.4 % mutated reads in data set [2].

B2: SGN000929 sgRNA ; SGN000929 target (ssRNA ; dsDNA)
RNA: AUCUGGAGGGAACUUACAGCAUAUGGUCAUAGUUCCAUGAAAGCCAAAAGUGGCUUUGAUGUUUCUAUGAUAAGGGUUUCGGCCCGUGGCGUCGGGGAUCGCCUGCCCAUUCCGAUGGGCUUCUCCCCAUUUAUU
DNA 1: ATCTGGAGGGAACTTACAGCATATG
DNA 2: CATATGCTGTAAGTTCCCTCCAGAT
Regarding B2, the activity amounted to 22.3 % mutated reads in data set [1] and 20.6 % mutated reads in data set [2].

B3: SGN001101 sgRNA ; SGN001101 target (ssRNA ; dsDNA)
RNA: AUAUUUUCUUUAAUGGUGCCAGGCAGUCAUAGUUCCAUUAAAGCCAAAAGUGGCUUUGAUGUUUCUAUGAUAAGGGUUUCGACCCGUGGCGUCGGGGAUCGCCUGCCCAUUGAAAUGGGCUUCUCCCCAU
DNA 1: ATATTTTCTTTAATGGTGCCAGGCA
DNA 2: TGCCTGGCACCATTAAAGAAAATAT
For B3, the activity in data set [1] was found to be 23.8 % mutated reads; in data set [2], 24.4 % mutated reads.
